Source: PMC10946529

Biological target: T1, [FeFe]-hydrogenase CaHydA from Clostridium acetobutylicum (Clostridium acetobutylicum) (UniProt Q59262)
T1 sequence: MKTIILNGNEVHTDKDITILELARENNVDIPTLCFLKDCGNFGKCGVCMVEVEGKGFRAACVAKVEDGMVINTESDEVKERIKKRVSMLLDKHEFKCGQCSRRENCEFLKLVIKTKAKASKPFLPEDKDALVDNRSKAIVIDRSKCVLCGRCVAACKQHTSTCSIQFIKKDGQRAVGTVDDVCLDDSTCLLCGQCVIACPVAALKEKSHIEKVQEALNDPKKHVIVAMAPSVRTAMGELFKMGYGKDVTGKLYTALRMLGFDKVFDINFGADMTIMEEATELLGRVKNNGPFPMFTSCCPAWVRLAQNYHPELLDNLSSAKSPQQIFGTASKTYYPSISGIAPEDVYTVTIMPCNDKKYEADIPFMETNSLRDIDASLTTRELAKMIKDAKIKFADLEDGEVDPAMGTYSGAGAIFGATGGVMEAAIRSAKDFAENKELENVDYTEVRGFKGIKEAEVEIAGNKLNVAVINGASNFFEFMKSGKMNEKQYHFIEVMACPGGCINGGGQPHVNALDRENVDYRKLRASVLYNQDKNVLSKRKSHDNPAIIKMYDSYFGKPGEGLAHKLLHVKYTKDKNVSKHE

Ac-GCGGGCGGCGGCGY-NH2 (also: [4Fe4S] cluster coordinated by the four Cys) [[4Fe4S]-peptide maquette Mq5 (Ac-…-NH2)] showed a turnover frequency (TOF) of electron transfer from CaHydA to the Mq5 cluster in H2 oxidation, assuming cluster concentration equal to the peptide concentration of 79 s⁻¹ and a turnover frequency (TOF) of electron transfer from CaHydA to the Mq5 cluster in H2 oxidation, corrected for about 40 % cluster formation relative to FdM1 of 31 s⁻¹.
